Reference: patent EP4115900A1

Target: gC1qR (C1QBP) on human T cells (human) (UniProt Q07021)
Experiment: cell-based or functional assay

Substance | PLA2G1B enzymatic activity on the membrane of CD4 T cells ([3H] arachidonic acid release)
HCV core protein (Prospec HCV-011) | 26 Fold
Staphylococcus aureus protein A (Sigma P6031) | 3 Fold
